{"source": "patent US20100159527", "about": "“Polypeptides Having Nucleic Acid Binding Activity and Compositions and Methods For Nucleic Acid Amplification” (LIFE TECHNOLOGIES CORPORATION, published 2010)", "binders": {"B1": {"name": "42-mer RNA:RNA duplex (oligos 1b+2b) (dsRNA)", "RNA 1": "CAGACUGGAAUUCAAGCGCGAGCUCGAAUAAGAGCUACUGUU", "RNA 2": "AACAGUAGCUCUUAUUCGAGCUCGCGCUUGAAUUCCAGUCUG"}, "B2": {"name": "42-mer DNA:DNA duplex (oligos 1a+2a) (dsDNA)", "DNA 1": "CAGACTGGAATTCAAGCGCGAGCTCGAATAAGAGCTACTGTT", "DNA 2": "AACAGTAGCTCTTATTCGAGCTCGCGCTTGAATTCCAGTCTG"}, "B3": {"name": "42-mer DNA:RNA duplex (oligos 1a+2b) (DNA:RNA)", "DNA": "B2 DNA 1", "RNA": "B1 RNA 2"}}, "key": {"Pae3192 [1]": {"biological_target": "T1, Pae3192 (Pyrobaculum aerophilum)", "T1 chain": "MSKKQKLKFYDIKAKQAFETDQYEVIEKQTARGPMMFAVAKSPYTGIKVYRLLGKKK", "experiment": "EMSA; not shifted up to 12 uM protein; 170 mM NaCl, 1 mM CaCl2, 25 mM Tris pH 8.0, 40 C, RNasin Plus", "conditions": "tags: expressed from pET16b with N-terminal 10xHis and Factor Xa site", "experimental": "(§1) Gel-shift experiments were carried out using 150 nM 42-mer duplex and separate experiments were performed with 0, 1.5, 3, 6 or 12 uM Pae3192 protein. A DNA:DNA duplex was created by annealing DNA oligonucleotides 1a and 2a of Table 1 below. An RNA:RNA duplex was created by annealing RNA oligonucleotides 1b and 2b of Table 1 below. A DNA:RNA duplex was created by annealing DNA oligonucleotide 1a to RNA oligonucleotide 2b of Table 1 below. DNA binding reactions contained 170 mM NaCl, 1 mM CaCl₂ and 25 mM Tris, pH 8.0. Pae3192 was incubated separately with each of the three duplexes for 15 minutes at 40° C. before being run on a 1% agarose gel."}, "Pae3192 [2]": {"biological_target": "T1, Pae3192", "experiment": "EMSA; 150 nM duplex, 0-12 uM protein; 170 mM NaCl, 1 mM CaCl2, 25 mM Tris pH 8.0, 40 C, 1% agarose", "conditions": "tags: expressed from pET16b with N-terminal 10xHis and Factor Xa site", "experimental": "as §1"}}}
{"binder": "B1", "values": [{"measurement": "binding result", "setting": "Pae3192 [1]", "result": "no binding"}]}
{"binder": "B2", "values": [{"measurement": "binding result", "setting": "Pae3192 [2]", "result": "binds"}]}
{"binder": "B3", "values": [{"measurement": "binding result", "setting": "Pae3192 [2]", "result": "binds"}]}
